Measured values taken from the DeepSol protein solubility set.

Assay: soluble on expression in E. coli; label from the status in PepcDB or PDB records

| Sequence | soluble on expression in E. coli |
| --- | --- |
| MSELMQAILDSEEKHDLRGFISELRQQDKNYLLRNDILNVYAEYCSKCQKPETSYKFSNLSKLIYYTQEIIQEDSNFCFIIRPKIAAQEVYRLTADLDVEPMTVQELLDLRDRLVNKFHPYEGDILELDFGPFYDYTPTIRDPKNIGKGVQYLNRYLSSKLFQDSQQWLESLFNFLRLHNYNGIQLLINHQIQSQQQLSQQVKNALNFVSDRPNDEPYEQFRLQLQTMGFEPGWGNTASRVRDTLNILDELIDSPDPQTLEAFISRIPMIFRIVLVSAHGWFGQEGVLGRPDTGGQVVYVLDQAKNLEKQLQEDAILAGLEVLNVQPKVIILTRLIPNSDGTLCNQRLEKVYGTENAWILRVPLREFNPKMTQNWISRFEFWPYLETFAIDSERELLAEFQGRPDLIVGNYTDGNLVAFLLTRRMKVTQCNIAHALEKSKYLFSNLYWQDLEEKYHFSLQFTADLIAMNAANFVISSTYQEIVGTPDSIGQYESYKCFTMPELYHVVNGIELFSPKFNVVPPGVNENSYFPYTQTQNRIESDRDRLEEMLFTLEHHHHHH | not soluble |
| MEKDIKRQIQILEIITSEEKWFTTIEISKILRCCNKTIMKDISFIKDFLPEDWHIKIKKGKGVRIYLPYNKHRNEITFLLFRESLTFRILQHLFERETKTIATLAERLYIQVPSILPALKRVENYLKKFGLKLRKKPLRLEGDEVRIMIMYLDLYLKSYNDTEWPFEKLKKEVIFQYLGTLEESLGISLHVVSKRHLSFFIAILLKRKQQGYKVQLNRKFLYFNTETPDYVKIGRIFEKLEREFGVSLTVQDKILLTISIKSSKYVYKDINKEKEESVQYFKEGNLSIYELVKDFINSLEEKLKVDLISDEEFIFALVDYFKRTIYHLQYLCMFERPQKQTIQYMQTEHSETFSAVKEVYTEFVKKNEIADYVSVEEIAKVTMYIEASRLRYTSNYKKVLLVTGESESWAEYLAATLAKRFGDKIQISTVFFAKKSDHDVNADFIISTIPLDLGSTPIICINSIPTERDYTNIQYYLDLQDG | not soluble |
| MANVLVINFPGEGHINPTLAIISELIRRGETVVSYCIEDYRKKIEATGAEFREFENFLSQINIMERVNEGGSPLTMLSHMIEASERIVTQIVEETKGEQYDYLLYDNHFPVGRIIANVLQLPSISSCTTFAFNQYITFNDEQESRQVDETNPLYQSCLAGMEKWNRQYGMKCNSMYDIMNHPGDITIVYTSKEYQPRSDVFDESYKFVGPSIATRKEVGSFPMEDLKGEKLIFISMGTVFNEQPELYEKCFEAFKGVEATVILAVGKKINISQFENIPNNFKLYNYVPQLEVLQHADVFVTHGGMNSSSEALYYGVPLVVIPVTGDQPLVAKRVNEVGAGIRLNRKELTSELLRETVKEVMYDVTFKENSRKVGESLRNAGGYKRAVDEIFKMKMNSYLKLK | not soluble |
| MGHHHHHHSHMDAIHKQKSLQFKKTMDAKKNYEQKCRDKDEAEQAVSRSANLVNPKQQEKLFVKLATSKTAVEDSDKAYMLHIGTLDKVREEWQSEHIKACEAFEAQECERINFFRNALWLHVNQLSQQCVTSDEMYEQVRKSLEMCSIQRDIEYFVNQRKTGQIPPAPIMHENFYSSQKNAVPAGKATGPNLARRGPLPIPKSSPDDPNYSLVDDYSLLYQ | not soluble |
| MNIVALHVVLYHPEIPANTGNIARTCAATNTTLHLIRPLGFSTDDKMLKRAGLDYWEFVNVVYHDSLEELFEAYKKGKFFFITKFGQQPHTSFDYTDLDEDYFFVFGRETSGLPKDLIQNNMDRCLRLPMTEHVRSLNLSNTAAILVYEALRQQNYRDLK | soluble |
| MQVLNTKSETKQENETMQPPYIQERLKSLNDIETQLCSMLQEASQVTFIFGELKRGNESVKPQFENHVKQFYERLDKSTTQLRKEIQLLDENVGTRLLPINVNKKALGQDTEKMEEQLDLLSAILDPSKSK | soluble |
| MANQIYLFSLICLSVLLCQSYTVSSFQKSLDLAKPCKRFVLHLHDIAYDGDNAANATSAAIVNPLGLGDFSFGKFVIMDDPVTMDQNYLSKPVARVQGFFCYHGKATYDAWIAWTVVFNSTQHKGAFTIMGENPFMEPTRDLPIVGGTGDFIMTRGIATLTTDHIDGSKYFRVKLDIKLYECYH | soluble |
| MSLYKDDSLTLHTDLYQINMMQVYFEQGIHNRHAVFEVYFRKEPFNNGYAVFAGLQRMVEYLEQFQFSETDLAYLEELGYPENFLTYLKELRLELTIRSAKEGDLVFANEPIVQVEGPLGQCQLVETALLNIVNFQTLIATKAARIRSVIEDEPLLEFGTRRAQELDAAIWGTRAAMIGGADATSNVRAGKRFDIPVSGTHAHALVQAYGNDYDAFMAYAKTHKDCVFLVDTYDTLKVGVPTAIRVAKEMGDKINFLGVRLDSGDLAYLSKTVRQQLDDAGFTEAKIYASNDLDENTILNLKMQKAKIDVWGVGTKLITAYDQPALGAVYKIVSIEQEDGSMRDTIKLSNNAEKVSTPGKKQVWRITSREKGKSEGDYITFTDINVNELTEIEMFHPTYTYIKKTVKEFDAIPLLVDIFVKGELVYQLPTLAEIKAYAKKEFDKLWDEYKRVLNPQDYPVDLARDVWQNKMALIDNIRKDAYGKSEEGHHHHHH | soluble |
| MPTVSVKWQKKVLDGIEIDVSLPPYVFKAQLYDLTGVPPERQKIMVKGGLLKDDGDWAAIGVKDGQKLMMMGTADEIVKAPEKAIVFAEDLPEEALATNLGYSAGLVNLGNTCYMNSTVQCLKSVPELKSALSNYSLAARSNDVDQTSHMLTVATRELFGELDRSVLRKKYPQFSQLQNGMHMQQDAEECWTQLLYTLSQSLKAPTSSEGADAVKALFGVNLQSRIKLGVLDNVTDSTVISKCTLHCQESGEESSETESVYSLKCHISHEVNHLHEGLKHGLKGELEKTSPALGRTALYVKESLIDSLPRYLTVQFVRFFWKRESNQKAKILRKVDYPLVLDIFDLCSEDLRKKLEAPRQKLREEEGKKLGLQTSAKSGSKDSDVKMTDAEASANGSGESSTVNPQEGTSSEKETHMTGIYDLVAVLTHKGRSADSGHYVAWVKQESGKWIQYDDDNPSMQREEDITKLSGGGDWHMAYITMYKARFVSM | soluble |
| ATQGRLRRRPEGARVPSARRGRPRARWRAPQNNPEVDSIMAELKVEAPASVDWQKRCLTLETQLFRFRLQASKIRELLADKMQELEQRLLEAEQRAENAETQVGVMEEKVKLSNLKNVDSEGSLHRKYQELLKAIKGKDELISQLEAQLEKQKQMRAEEAKTVQEKAAKIKEWVTLKLAKLEMENQHLKSHNQRLVEQVGSLQDALEAIQIAPSRKLLVPPYGAAEQDSVPSEPGIQPMGQDSGSQAQGLKAAVLAPSPGALQSKDSVSEAASPLEDSSSSTVHSGETVEAKPLQPHLGRESPPHQPCMKLLTFRCSSASWGEGLVTAQRGMLPGTKTSAREGGPGSSLTLPKVRAPGTPRDSIQLAKRHHSQPQVGHGHFGRVVNIETEAFSALHPSGLPELESRARSREEPEKMEMEEPPPAGKNEERESPKALGAELEEVELGNKPPTPPLHQFSSWESRIYAVATSGMRLSDMSPRSNTACCASSPPALVSPGSFSGLVYKNVTVPVYTALKGRATQISNMPFMDESSGSDDDCSSQASFRISVPSSESRKTSGLGSPRAIKRGVSMSSLSSEGDYAIPPDACSLDSDYSEPEHKLQRTSSYSTDGLGLGGESLEKSGYLLKMGSQVKTWKRRWFVLRQGQIMYYKSPSDVIRKPQGQVDLNSRCQIVRGEGSQTFQLISEKKTYYLTADSPSLLEEWIRVLQSLLKVQATGPPALLRGGTKPTVKGWLTKVKHGHSKVVWCALVGKIFYYYRSHEDKRPLGCLPVRDAHIEEVDRSCDSDEDYEAGGTRRLLSSHCTLVIHPTEHSPTYLLIGTKHEKDTWLYHLTVAAGGSSAKVGTAYEQLIGKLMDGEGDPDSPLWRHPMLCYSKDGLYASLTTLPSEALQTEALKLFKSCQLFINVPVEAASVDYHVSLAQTALQVCLVHPELQSEIYCQLMKQTSCRPPQKYSLMQCWQLLALCAPLFLPQHHFLWYVKQQLQRHADPRSETGQYATYCQRAVERTLRTGEREARPSRMEVVSILLRNPFHHSLPFSIPVHFTNGTYHVVGFDGSSTVDEFLQRLNQEIGMRKPSHSGFALFTDDPSGRDLEHCLQGSVKICDAISKWEQAMKELHPGKSEGGTRVVKLMYKNRLYFRSQVKGETDRERLLLASQTSREIVAGRFPINKELALEMAALMAQVEYGDLEKPALPGPGGTSPAKAQHLLQQVLDRFHPRRYRHGAPAEQLRHLADMLTTKWATLQGCSPPECIRIYLTVARKWPFFGAKLFAAQPAQLSSKENALVWIAVNEDGVSILDHNTMQVHITYPYSSVTTFGGCRDDFMLVIRSIPDKSSGKSHIEKLIFRMAAPKIAEATFIMASYMNHCTTTVNPPTNPPGACQLWELDGRQFFSSVSCATKGPTLL | soluble |
| SSVLRSMDKLPDLNRATVLLVSTEDALLQQLAESMLKDDCASELRVHLANSLPLPSNVNRPRIDLIVFVINLHSKYSLQKVEEFLQHVDSSFFLGKVCFLVTGAGQESHCSVHQNTVIKLAHTYRSPLFLCDLQKVESFRAAMARRLVRILQICAGHVPGVSALNLMSLLRSPENPPSKEL | soluble |
| MGSDKIHHHHHHISNNLANSSTIGYKTSNASFYSLVTGTGSTSNFTGAGVVASATQNVINQGVIVGTQNVTDLAVDGKGMFIVTDRSGSNELYYTRAGDFYPNADGDLVNSNNYYLQGYPTDRNGVPLTNTGNSGASLETINLAGATGAAKATSEMSIQAVLPAQATAGDSTAVPPVAAYTSSSDVEIYDSLGVAHTMTVKWTKMSDTKWTMTLYDPKLSSDMTGDATGAISSTTTGVTDVPANAGPPATSHGIAVDVEFTDQGLLKTPSVLALKITPDASNGTGAAISEIALNLGTAGKANGLSTYSNEDSDGKPAVDLKKVVQDGVTYGTYYSNTISKAGLVYANFTNGISYPIYQVPLAMFSNVNGLEAVSGTAYSATVKSGTPTYVTAGTGGSGGVSSGSVESSTVDTAAEFSKLIVSQQAYSAATQIISSNQEMFQNLISAKR | not soluble |
| MPYVERSNIVGLFGGSFNPPHEGHLLVAKTAIRRLRLNQLWWMVTPGNPLKDCTHLPPLEKRMRLSLELIDDPKIRVTGFEQAIGSKVSVETISHILAHYRRVHFVWIMGADSLATIHHWYRWHDIISMLPIAIIDRPLVHMSALSSSMAHIYRSFRLDERESIRLPFMKPPAWIYLHGALSFQSSTNLRLKENAFF | not soluble |
| MEIKPTPSPPEERTIYVANFSEEVDEELLEELFIQAGPVVKVILRDVRDSNAKFALVEFEDELSVLFAIELMNGVRLFNQELQVKPRNGTNQEELYKRKKGEIEERVRSVAAPDRDGRRDSYRDDRNRNRNGNNRDSWQQQQPPRHHRQYDPLPPPPPPPLMGGSGGHWRSGGERGPPQYSTPQMLPHQHFVNQMMQQQINRSAPPYNGRHQNSTPHRHHDRHGYDRSSSRHHRNDDRRRSAHFLDIRKFQAPPTSWAFGNFQCFFWNLFSKITYLQEVGGA | not soluble |
| MDREAFVQTLTACRLCPRLVAWREEVVGRKRAFRGEPYWARPVPGFGDPEARILLFGLAPGAHGSNRTGRPFTGDASGAFLYPLLHEAGLSSKPESLPGDDLRLYGVYLTAAVRCAPPKNKPTPEELRACARWTEVELGLLPEVRVYVALGRIALEALLAHFGLRKSAHPFRHGAHYPLPGGRHLLASYHVSRQNTQTGRLTREMFLEVLMEAKRLAGL | soluble |
| MSLRQFWFTMVKVDGTSMQPNLQNNERVVAFKTSKIKAGSVVVFNAYGLDPNQTDKNAVYVKRVIGMPGDTVRYTSSGKLYVNNKLVKQTYLKNKYQQTTGSFMANSHSKFTGWTLNSLSHDQGWAKSVTNNTVPKGYYFVLGDHRSVSNDGRYWGLVPKSKMIGVVKAWPWQNRKQYINNYQEGHHHHHH | soluble |
